Reference: the DeepSol protein solubility set

assay: soluble on expression in E. coli; label from the status in PepcDB or PDB records

| Sequence | soluble on expression in E. coli |
| --- | --- |
| MDTEPIQIDSDDSFDAGAPTSSHTMDRKSIIEKYQKLKEESKKLDDLAVEVRSLFMICKQMEECYTKRIDRIVATYGEIRYLHDGTILLLVTIHNITNQPMIDWVISINPTSIFPNSSSSCCQTINVGSLLPGIRKTFQCQLTCKDPPVLLQLSLLRTYQLGGIVKCFKVKLDPILVTAWNQAQRVERKNMETSFTSTIRLPNSLINLLSGSPDTVISVPQVFKSILNVPNVQEDHIVIKMSSAFVVGATGAVGSELVKLLAESTKFSKVVVLARRPVDGATGDKLIQKTVDFDKLEENAEDIQGVDVAFCALGTTRGKSGADGFYKVDHDYVMSAAKMAKENGVKQFVLVSSVGADASSRFLYPKTKGEVEKEIGELNFEKFVIMRPGLIEAKRPEFRIGEFLGKIVTAPLGLFSNRFSSSATAIAQAMINATQTEETGNQIWNNSKIVEESKKYTA | not soluble |
| MDTLDGLKTVVAVVETNSFTAASDRLGISKALVSKYVGEVENQLGIRLFNRTTRQLALTDSGRRYYEEAIILLEQFSAMVDNVTGEQTAPRGLLRISAPVTFGEMRLAPLLPKFIALYPDLTVELVLTNGAIDMLEEGIDVRLRIGGVDDSNMIARHLTNFPLVLSASPNYAQTQGLPTTPEQLGEHHCIIDSNFRIGKQWPFISPKGRAETINVQSGLAVNSPQAVREIAIADGGIAMTPNFIVEDALADGRLLRVMPEYTTLEFGLFAIYPHRKYVARKVRCFIDFVLEQFSKK | not soluble |
| MDTLRYLTGYPPAVLEQVRALIAQDKLGAVLAQRYPERHTVRTDRQLYDYVKEMKERYMRSSPTLHKAIYDNHLQVVKHALGTHTAISRVHGSRLKASREIRIAAIFRDAPAPFLQMIVAHELAHLKEPEHDKAFYQLCHHMAPDYHQLEFDLRLYLTQLALSPRDLEHHHHHH | soluble |
| MDTMAKINQFRDERNWRPHHNEKDLALSICLEAAELLELFQWKTAEEGIKQEERIKEELADVLIYSYMMADNLGFDLDEIIEEKLKKNALKYPVPH | not soluble |
| MDTNWLYVLLQKSTADPLERLKLGNVILNEVSQRKVSPHPKLVNDFLDVMSGWLTGSNFKVSTIGLEILDAALRTSPDVLASYYFDRCSVLIERMGDAKVQVREMAINLCLQLAYLENSSPVMLLDRLCVPGTGFQHKQWLVKVGSLNILREFLSSSFALVIQQAITLIPQLCRLTNDPNSEVRDVSTQCLIDLMVYGGKPIVAKIAATRLINEQKMATLLQRYQTTVATRGDLPPKHTITMETTPAQPSRNSLLRRSLRSPAKIIHPSASTTSFTSSARLSTPPRPTTTAAQSLSLAPQTPSPLSLPSPSGGQMSRSRDLTRSSLRAPAGISISRYRSSSCAPAAQCAITLDDFKKSFTAVPKTTIYSNHDIREKLELANLVLRNANEDWSKRANQLKLIRSIIINCDENIDRSLLISIINELADALEFSIRDLRSQIVREAAVTCSFLFETFGMEVKNVAECVLPAALAQVAVSTKVIASSAATLTVFIVQKIQTRQIFTTLSELSSSKAKEQRRQLAVVLETLIASWDLKSKQPILKQIAQLVQNAICDADGETRVAGRKAFAKLEQLHGTTADLIFRELDPAKQKMLRDGVSSSSSSLNSDRDNNNQKQQPNQQNISQKFLSQRSASAVDKSIQLSVKPQTTAIPSRPTAMPMNNRLPKSSTSTSFSAVRSSGYGQNQSTTPNRAKTPSDGFAGSSPHYTNGNNNNKSSSSSPSTSTHQTPIQRVASNLGSSSFVASLTQEQANCLQNAMNTAKDEMSKNNEDDEFLLDEIRKTPPKEVPRSYNNSPFKPSNLDSSVHRSYNNNSPFRPSSGSVGSGSNGSVQSIEHILKACTSSSLNEKRDAIVNLNQVITDPNLCQLECKNIGDTLSRLLAEGNNTLIISILDTISIFIKFQYKKLDNWLKLALGKLFAKMGADALPNVKSALSSTQKMFLTTFDPTFQLKAVCDFMCDPVHLLSPKSRLALLEYICLLFEEIWPEDPRCLERQTHLDTPYTRAAIRKMFAWMFDPRIGAILMPACERLVCALFALNAADFTMIFGELPSECRDWAYRILQLNGQQNNQKPIEKEKERFISNNNYKPCPLDNEEIEKPIMKTTYSTYESTRKEYSQTERIATENQYSTPPPPDYRTSTAHLAKNHVDQAAYIRNQLDAIRDFEKADKLNEAMANLHGMMCEGSFTLWNQFFDELLDSIYQILSTFSQSIRKKLALRILQKMCTAQATKLFDSTEIAISKVLQCACTSDDNTMGVAAEDCLRILASHLPLTRVVLISRRILSQDDDDQRGVLILKMLTRMFQDIDIEELHLIVNDVAPCFVTAYESMSSTVRKCAVFGLVALVQRVGMQRMEPHLRTLNASKLNLIDLYVGRAKSSESGASSN | not soluble |
| MDTTIGVIGNKVVHVIKENDSVKTAAEEMKKHNLGALVVIDDNDKIVGIITERDIVKVVAEGKLDAKVKDYMTRNVIGVTEDTPITDALEIMLDHGFRHLPIIGKDGKVIGIVSIRDLSKAILDPHFFQFKKEAADVKGSGYVCPVCGMEIDEYGYCGCGAGSG | soluble |
| MDVQDLKPPKPLYLERVGFRGVRRRALLETPEGPVTLDLELDVFVDLDRSKRGVHLSRNIEAVEAVVSERRARSIEGLLRSIAKELLSRHGYAEKATVRARTRYYIDLEAAGVKGREPVDVAVTVSLTRSGGERWRVAVSVKGMTVCPSAQSTIAEAEGISDPSRAPSHSQKVLLKGTVDTGKVMVRIEDLARALLQSFSAPTFTLLKKPQEARLILEAFTRPMFVEDVVREAAWRIAAIPYIPGEALLQVEAVSLESIHPHDLVAMLRSRVSEVRSLASRSV | not soluble |
| MDYIKGIAFDLYGTLFDVHSVVGRCDEAFPGRGREISALWRQKQLEYTWLRSLMNRYVNFQQATEDALRFTCRHLGLDLDARTRSTLCDAYLRLAPFSEVPDSLRELKRRGLKLAILSNGSPQSIDAVVSHAGLRDGFDHLLSVDPVQVYKPDNRVYELAEQALGLDRSAILFVASNAWDATGARYFGFPTCWINRTGNVFEEMGQTPDWEVTSLRAVVELFETAAGKAEKG | soluble |
| MDYKDDDDKLVDSLRACVFDAYGTLLDVHSAVMRNADEVGASAEALSMLWRQRQLEYSWTRTLMHQYADFWQLTDEALTFALRTYHLEDRKGLKDRLMSAYKELSAYPDAAETLEKLKSAGYIVAILSNGNDEMLQAALKASKLDRVLDSCLSADDLKIYKPDPRIYQFACDRLGVNPNEVCFVSSNAWDLGGAGKFGFNTVRINRQGNPPEYEFAPLKHQVNSLSELWPLLAKNVTKAA | soluble |
| MDYKTCPFHLVFLYSINPREPRLRKKIYYMMETESRLVVSHALIMYDYNQEGELPRMHGGYLKRFAKRATKRPDPFFQPTQIHDIDNDVSDMSECEKECPFAVPAQAADDGSLYLQLLDMEFWNDRNRQLHFLVNKPSLIESLGCLNNRVPALPPATTGKAAFVFFIDGLEVDARNLTCDGLVPWSENTSTNPHGITKRPKSAKQALALNREGQLRIWKTPSSHRSDLIEFQLHVYTATLPRCPRLRKKVTYVLKNGHQIGNAMIIYWYTEPGEMPAPVNVSTMSSAQEYSLQRLPPHIREDVLRLLARMTPAEVAKVILEKYGIQVNTKMLYYVRRREIMAATDGIRDAEDDHDPYELKNEMIVSAAAGDFVDDWTTDTAGASAEASEGGSRKKNVHLEEMLDERELQVSHTEEIQQPSSSQQQIQLPYRKAKYQEPKNFGQQSSGLPLSQSGMARGTSRNEALFRIAKNSFGSATDNETFDLLFKMLFEKSEHRLLQIVNHTFGVEIMAGEEMDNGEMHLHMAPDGAIVEEIVEEEVIGTVGDDVNLEEEVHENEPKVYTGEKQINDVLEQVVVEEPNHHDDHPPHELLEEDALVNPDDVIVDPNQLIIHDDDDQRQQNIQ | not soluble |
| MDYQTFEKVNKFINVKAYIFFLTQELKQQYKLSLKELLILAYFYYKNEHSISLKEIIGDILYKQSDVVKNIKSLSKKGFINKSRNEADERRIFVSVTPIQRKKIACVINELDKIIKGFNKERDYIKYQWAPKYSKEFFILFMNIMYSKDFLKYRFNLTFLDLSILYVISSRKNEILNLKDLFESIRFMYPQIVRSVNRLNNKGMLIKERSLADERIVLIKINKIQYNTIKSIFTDTSKILKPRKFFF | not soluble |
| MEAQAQGLLETEPLQGTDEDAVASADFSSMLSEEEKEELKAELVQLEDEITTLRQVLSAKERHLVEIKQKLGMNLMNELKQNFSKSWHDMQTTTAYKKTHETLSHAGQKATAAFSNVGTAISKKFGDMSYSIRHSISMPAMRRK | soluble |
| MEARTTDLSDLYPEGEALPMVFKSFGGRARFAGRVRTLRVFEDNALVRKVLEEEGAGQVLFVDGGGSLRTALLGGNLARRAWEKGWAGVVVHGAVRDTEELREVPIGLLALAATPKKSAKEGKGEVDVPLKVLGVEVLPGSFLLADEDGLLLLPEPPSGVRSGG | soluble |
| MEASKEFPGFPNDFHAFEVSPIPFDINSKELSLKNHSNRAILFKVKCTNNKRIRIEECSDILKPGNETTATIKKLVDTVDGDSLYVIYTLVGKEWHNERMSAWRCWERAKKQAVPTQCISVPIKRSSECEKKEKKYEKEKTKSED | soluble |
| MEASSSAQAKIADMREKLGREVRVFETSSISQRPSQVSSADDESDDFYEFTPADFYRLLATKKEDKSLKTRKIREAEEAARRSKLTKAVIRVRFPDNHTLEATFHPSEKIQGLIDLVKRVVAHPDVPFYLYTTPPKKQIKDFSQDFYSAGFVPGAIVYFSNDQPKDDGGSSTPYLNEEILSLKDLEAMTKAVEPVESSSEPATVDSSAVPVEHERKSTEKKTTKPKWFKM | soluble |
| MEAVRPDSCESGPAAPRAEERPAPEARVHFRVTRFIMEAGVKLGMQSIPIATACTIYHKFFCEINLDAYDLYLVAMSSIYLAGKVEEQHLRTRDIINVSHRYFNPGSEPLELDSRFWELRDSIVQCELLMLRVLRFQVSFQHPHKYLLHYLISLKNWLNRYSWQRTPISVTAWALLRDSYHGGLCLRFQAQHLAVAVLYLALQVYGVEVPAEGEAEKPWWQVFSDDLTKPIIDNIVSDLIQIYTMDTEIP | not soluble |
| MEAWKKKKGLFKGARYQCTLEPIEREVLGNLAANISEVLISRAQSAPKDELAELTGMGGGHTEAPEDPGLARLLPDFEMQGDEEFDGDNSLLRSLHENDITRAKLANLQTIGQALGPDGSVFVTVTEEEAQAWVAGLNDIRLYLASSEVQDTEDRDALVEWLAFAQESLLTAMMGSLD | not soluble |
| MEAYNVQNLYQCLNCDDYHLCNGSLNCDPLVDREGIVCTVTGKYIQCNVRELEHHHHHH | soluble |
| MEDEIRKAAEILAKSKHAVVFTGAGISAESGIPTFRGEDGLWRKYDPEEVASISGFKRNPRAFWEFSMEMKDKLFAEPNPAHYAIAELERMGIVKAVITQNIDMLHQRAGSRRVLELHGSMDKLDCLDCHETYDWSEFVEDFNKGEIPRCRKCGSYYVKPRVVLFGEPLPQRTLFEAIEEAKHCDAFMVVGSSLVVYPAAELPYIAKKAGAKMIIVNAEPTMADPIFDVKIIGKAGEVLPKIVEEVKRLRSEK | soluble |
| MEDLEEDVRFIVDETLDFGGLSPSDSREEEDITVLVTPEKPLRRGLSHRSDPNAVAPAPQGVRLSLGPLSPEKLEEILDEANRLAAQLEQCALQDRESAGEGLGPRRVKPSPRRETFVLKDSPVRDLLPTVNSLTRSTPSPSSLTPRLRSNDRKGSVRALRATSGKRPSNMKRESPTCNLFPASKSPASSPLTRSTPPVRGRAGPSGRAAASPPTPIRSVLAPQPSTSNSQRLPRPQGAAAKSSSQLPIPSAIPRPASRMPLTSRSVPPGRGALPPDSLSTRKGLPRPSTAGHRVRESGHKVPVSQRLNLPVMGATRSNLQPPRKVAVPGPTR | soluble |
